From the supplement of paper PMC10724198
± gives the standard deviation of the averaged measurements.

Tests used:
[1] = test system: Saccharomyces cerevisiae; experiment: protein stability index of tFT-peptide fusion (C-terminal peptide) (PSI (0-1 scale)); higher = more stable (slower turnover)
Procedure: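 MPS profiling in S. cerevisiae of the tFT-X12 degron library: putative degron peptides plus stable controls, 12 aa, fused to the C-terminus of a sfGFP-mCherry timer. Cells are FACS-sorted into 8 mCherry/sfGFP bins and deep-sequenced. PSI runs from 0 (unstable) to 1 (stable). Backgrounds are wild type, das1Δ and doa10Δ at 30 °C, and wild type, das1Δ, cdc34-1 and cdc53-1 at 37 °C; 2-3 technical replicates each.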

[2] = test system: Saccharomyces cerevisiae; experiment: as above; settings: genetic background: wild type; temperature: 30 C
[3] = genetic background: cdc34-1, temperature: 37 C
[4] = genetic background: cdc53-1, temperature: 37 C
[5] = genetic background: das1 deletion, temperature: 30 C
[6] = genetic background: das1 deletion, temperature: 37 C
[7] = genetic background: doa10 deletion, temperature: 30 C
[8] = genetic background: wild type, temperature: 30 C
[9] = genetic background: wild type, temperature: 37 C
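Further: PSI is a weighted mean of sequencing reads over stability bins, variants kept only with over 10 reads, mCherry proximal and sfGFP distal, peptide attached via GGGS linker.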

| Sequence | protein stability index [1, 3] | protein stability index [1, 4] | protein stability index [1, 5] | protein stability index [1, 6] | protein stability index [1, 7] | protein stability index [1, 8] | protein stability index [1, 9] | protein stability index [2] |
| --- | --- | --- | --- | --- | --- | --- | --- | --- |
| SFFFLILFLFRD | 0.372 ± 0.11 | 0.459 ± 0.04 | 0.315 ± 0.029 | 0.484 ± 0.014 | 0.318 ± 0.019 | 0.299 ± 0.03 | 0.466 ± 0.04 | 0.385 ± 0.053 |
| MSCILFCCLVPF | 0.545 ± 0.039 | 0.57 ± 0.034 | 0.423 ± 0.023 | 0.568 ± 0.014 | 0.381 ± 0.012 | 0.402 ± 0.029 | 0.549 ± 0.017 | 0.4748 ± 0.0035 |
| PFYQSGGLVVVV | 0.58 ± 0.024 | 0.63 ± 0.017 | 0.469 ± 0.034 | 0.62927 ± 0.00041 | 0.437 ± 0.021 | 0.464 ± 0.023 | 0.583 ± 0.029 | 0.21 ± 0.039 |
| CSAVYNLHLLYS | 0.696 ± 0.022 | 0.745 ± 0.012 | 0.626 ± 0.013 | 0.741 ± 0.011 | 0.469 ± 0.04 | 0.48 ± 0.022 | 0.6452 ± 0.0029 | 0.519 ± 0.076 |
| VVIYWFLPIIFA | 0.09487 ± 0.00071 | 0.0751 ± 0.015 | 0.163 ± 0.032 | 0.253 ± 0.018 | 0.266 ± 0.006 | 0.155 ± 0.021 | 0.224 ± 0.013 | 0.23 ± 0.029 |
| CCSGWSVRLLCV | 0.578 ± 0.066 | 0.606 ± 0.036 | 0.494 ± 0.033 | 0.625 ± 0.025 | 0.243 ± 0.0063 | 0.269 ± 0.024 | 0.375 ± 0.0046 | 0.37 ± 0.025 |
| FLLFFVLRLLPC | 0.272 ± 0.0094 | 0.293 ± 0.03 | 0.236 ± 0.035 | 0.396 ± 0.016 | 0.255 ± 0.013 | 0.231 ± 0.026 | 0.376 ± 0.011 | 0.316 ± 0.018 |
| RLDAPGLSRTEN | 0.66 ± 0.04 | 0.68 ± 0.011 | 0.647 ± 0.044 | 0.683 ± 0.0075 | 0.66 ± 0.026 | 0.646 ± 0.078 | 0.671 ± 0.017 | 0.513 ± 0.12 |
| PLLVVPVPRALY | 0.675 ± 0.082 | 0.72 ± 0.0074 | 0.626 ± 0.011 | 0.733 ± 0.018 | 0.242 ± 0.0057 | 0.281 ± 0.013 | 0.491 ± 0.038 | 0.382 ± 0.021 |
| YPGMFLQLVWWI | 0.4297 ± 0.0022 | 0.552 ± 0.036 | 0.433 ± 0.03 | 0.5804 ± 0.0042 | 0.1211 ± 0.0011 | 0.117 ± 0.0026 | 0.126 ± 0.0019 | 0.176 ± 0.026 |
| VRDQGWILNMLL | 0.7266 ± 0.007 | 0.771 ± 0.024 | 0.651 ± 0.032 | 0.7546 ± 0.0011 | 0.3707 ± 0.0019 | 0.422 ± 0.028 | 0.639 ± 0.023 | 0.485 ± 0.016 |
| GGGEGVVWVRLG | 0.537 ± 0.054 | 0.72 ± 0.011 | 0.637 ± 0.0046 | 0.737 ± 0.009 | 0.116 ± 0.012 | 0.131 ± 0.0021 | 0.19 ± 0.01 | 0.272 ± 0.018 |
| LLLFLHSTLTCR | 0.474 ± 0.056 | 0.543 ± 0.01 | 0.408 ± 0.035 | 0.618 ± 0.018 | 0.383 ± 0.011 | 0.411 ± 0.02 | 0.558 ± 0.022 | 0.49 ± 0.011 |
| KKTKKTMIIKTT | 0.693 ± 0.066 | 0.706 ± 0.027 | 0.6314 ± 0.005 | 0.745 ± 0.0037 | 0.33 ± 0.021 | 0.369 ± 0.04 | 0.6051 ± 0.0008 | 0.463 ± 0.0091 |
| SFTRYIFFLMFF | 0.438 ± 0.051 | 0.475 ± 0.037 | 0.417 ± 0.023 | 0.585 ± 0.021 | 0.4089 ± 0.0013 | 0.325 ± 0.017 | 0.456 ± 0.0069 | 0.355 ± 0.015 |
| LLFVLWLSFFVL | 0.3135 ± 0.0016 | 0.384 ± 0.074 | 0.272 ± 0.03 | 0.449 ± 0.012 | 0.239 ± 0.0027 | 0.247 ± 0.034 | 0.382 ± 0.04 | 0.346 ± 0.031 |
| PPLLLFLSLAFL | 0.322 ± 0.02 | 0.407 ± 0.012 | 0.285 ± 0.027 | 0.449 ± 0.015 | 0.239 ± 0.012 | 0.271 ± 0.028 | 0.441 ± 0.009 | 0.381 ± 0.054 |
| RGLWAAIPRKCT | 0.669 ± 0.04 | 0.74108 ± 0.00026 | 0.645 ± 0.0061 | 0.754 ± 0.016 | 0.179 ± 0.027 | 0.223 ± 0.023 | 0.548 ± 0.02 | 0.358 ± 0.028 |
| WFLVLLFFWFLL | 0.524 ± 0.0097 | 0.628 ± 0.055 | 0.541 ± 0.0066 | 0.618 ± 0.028 | 0.55 ± 0.036 | 0.533 ± 0.022 | 0.566 ± 0.0068 | 0.48 ± 0.073 |
| VFTGYSAFLLLC | 0.325 ± 0.011 | 0.578 ± 0.025 | 0.487 ± 0.025 | 0.6366 ± 0.0041 | 0.0796 ± 0.016 | 0.0748 ± 0.014 | 0.0721 ± 0.0049 | 0.144 ± 0.011 |
| ESVPLLIVLHLV | 0.304 ± 0.058 | 0.62 ± 0.085 | 0.415 ± 0.032 | 0.5979 ± 0.0039 | 0.0857 ± 0.02 | 0.0885 ± 0.0083 | 0.07176 ± 0.00058 | 0.0881 ± 0.034 |
| FLCWLSFIPLLS | 0.203 ± 0.0093 | 0.164 ± 0.007 | 0.293 ± 0.034 | 0.366 ± 0.0095 | 0.418 ± 0.019 | 0.256 ± 0.017 | 0.32 ± 0.015 | 0.38 ± 0.02 |
| TNHRVRHWILRV | 0.665 ± 0.013 | 0.721 ± 0.0099 | 0.609 ± 0.024 | 0.713 ± 0.02 | 0.253 ± 0.022 | 0.301 ± 0.019 | 0.517 ± 0.0083 | 0.396 ± 0.031 |
| PRHERPPRDNGH | 0.674 ± 0.041 | 0.72232 ± 0.00022 | 0.655 ± 0.011 | 0.73 ± 0.013 | 0.6522 ± 0.0063 | 0.654 ± 0.025 | 0.702 ± 0.022 | 0.709 ± 0.025 |
| KRSPPPATPSSG | 0.6827 ± 0.0047 | 0.73 ± 0.013 | 0.631 ± 0.025 | 0.76 ± 0.043 | 0.6035 ± 0.0057 | 0.623 ± 0.0081 | 0.704 ± 0.012 | 0.24 ± 0.034 |
| RYVVVGACIQVV | 0.421 ± 0.015 | 0.447 ± 0.0078 | 0.302 ± 0.024 | 0.48 ± 0.0021 | 0.274 ± 0.015 | 0.314 ± 0.012 | 0.4511 ± 0.003 | 0.37 ± 0.011 |
| SVLALLWVGCWL | 0.355 ± 0.0064 | 0.4238 ± 0.0021 | 0.271 ± 0.045 | 0.478 ± 0.017 | 0.253 ± 0.0065 | 0.265 ± 0.029 | 0.452 ± 0.028 | 0.378 ± 0.055 |
| LVFFAYLIRGAL | 0.344 ± 0.0086 | 0.462 ± 0.011 | 0.364 ± 0.031 | 0.518 ± 0.015 | 0.0526 ± 0.0068 | 0.0682 ± 0.0051 | 0.0558 ± 0.0015 | 0.108 ± 0.036 |
| LPPYPPPVPILI | 0.449 ± 0.0069 | 0.455 ± 0.021 | 0.362 ± 0.031 | 0.519 ± 0.0006 | 0.322 ± 0.0038 | 0.39 ± 0.026 | 0.489 ± 0.0053 | 0.493 ± 0.017 |
| IYITFQIYVSDM | 0.104 ± 0.018 | 0.172 ± 0.0076 | 0.161 ± 0.019 | 0.267 ± 0.0076 | 0.0912 ± 0.04 | 0.127 ± 0.0083 | 0.244 ± 0.032 | 0.229 ± 0.018 |
